Laboratory results published in patent publication US20050037969A1 (ARBOR VITA, published 2005).
Ends that are not written are not given here. * marks the point of attachment. Biotin = O=C1N[C@H]2[C@H](CS[C@H]2CCCCC(=O)*)N1

T1: GST-41.8 kD protein (KIAA0751) PDZ domain fusion protein (Mus musculus (Mouse), UniProt Q9EQZ7 682-763)
T1 construct: also called 41 kd; hypoth; not shown: glutathione S-transferase encoded by vector pGEX-3X (Pharmacia)
T1 sequence: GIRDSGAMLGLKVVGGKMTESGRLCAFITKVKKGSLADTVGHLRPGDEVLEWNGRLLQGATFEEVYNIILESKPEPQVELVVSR

T2: KIAA0807 (PDZ domain)-GST fusion protein (human, UniProt Q6P0Q8 1104-1192)
T2 construct: also called K807; KIAA807; not shown: glutathione S-transferase encoded by vector pGEX-3X (Pharmacia)
T2 sequence: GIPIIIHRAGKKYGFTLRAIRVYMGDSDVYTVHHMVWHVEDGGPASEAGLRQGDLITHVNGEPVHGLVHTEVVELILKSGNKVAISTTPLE

T3: GEF PDZ-GST fusion protein (Homo sapiens (Human), UniProt Q8TEU7 293-400)
T3 construct: The label GEF is not explained in the excerpts
T3 sequence: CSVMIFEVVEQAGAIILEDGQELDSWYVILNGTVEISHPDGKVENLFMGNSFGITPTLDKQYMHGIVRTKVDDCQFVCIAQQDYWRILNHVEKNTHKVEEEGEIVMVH

T4: GST-LIM protein PDZ domain fusion protein (Human, UniProt Q96HC4 2-85)
T4 construct: also called Human LIM protein; not shown: glutathione S-transferase encoded by vector pGEX-3X (Pharmacia)
T4 sequence: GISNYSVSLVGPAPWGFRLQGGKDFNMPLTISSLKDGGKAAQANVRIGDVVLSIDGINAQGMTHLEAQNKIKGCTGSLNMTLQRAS

B1: CC CKR-4 C-terminal peptide AA44L (peptide)
peptide: Biotin-DTPSSSYTQSTMDHDLHDAL
notes: Only the last four residues are seen in the excerpts
B2: CC CKR-1R C-terminal peptide AA41L (peptide)
peptide: Biotin-LERVSSTSPSTGEHELSAGF
notes: as for B1
B3: CC CKR-2 C-terminal peptide AA42L (peptide)
peptide: Biotin-GKGKSIGRAPEASLQDKEGA
notes: as for B1
B4: PAG C-terminal peptide AA58L, biotinylated (peptide)
peptide: Biotin-KENDYESISDLQQGRDITRL
notes: also called Phosphoprotein Associated with GEMs
B5: CD114 (G-CSFR) C-terminal peptide AA27L (peptide)
peptide: Biotin-LNFPLLQGIRVHGMEALGSF
notes: as for B1
B6: Mannose receptor C-terminal peptide AA31L (peptide)
peptide: Biotin-GTSDMKDLVGNIEQNEHSVI
notes: as for B1
B7: V-gated Ca2+ channel C-terminal peptide AA46L (peptide)
peptide: Biotin-SSGGRARHSYHHPDQDHWC
notes: Marked (S), sticky peptide with high background; also called V-gated Ca2+ channel (S)
B8: CD5 C-terminal peptide AA49L (peptide)
peptide: Biotin-SMQPDNSSDSDYDLHGAQRL
notes: as for B1
B9: CC CKR-3 C-terminal peptide AA43L (peptide)
peptide: Biotin-LERTSSVSPSTAEPELSIVF
notes: as for B1
B10: CDw137 (4-1BB ILA) C-terminal peptide AA21L (peptide)
peptide: Biotin-QEEDGCSCRFPEEEEGGCEL
modifications: cysteine pairing not given here
notes: Marked (S), sticky peptide with high background; also called CDw137 (4-1BB ILA) (S)
B11: CD62E C-terminal peptide AA48L (peptide)
peptide: Biotin-SSSQSLESDGSYQKPSYIL
notes: as for B1

The binders below were run against T1, GST-41.8 kD protein (KIAA0751) PDZ … (assay: G assay: biotinylated peptide on plate-bound GST-PDZ fusion, OD 450 nm; no GST-alone bar on the sheet).

binding result	Binder
no binding	B1
no binding	Biotin-YSATYSELEDPGEMSPPIDL (also called FceRlb; FcεRβI) [FceRIb C-terminal peptide AA25L, biotinylated]
no binding	Biotin-PSWRRSSLSESENATSLTTF (also called CXCR5) [BLR-1 C-terminal peptide AA45L, biotinylated]
no binding	B2
no binding	B3
no binding	Biotin-ARHRVTSYTSSSVNVSSNL [CDW128A (IL8RA) C-terminal peptide AA29.1L, biotinylated]
no binding	Biotin-VTSPNKHLGLVTPHKTELV [CD83 C-terminal peptide AA47L, biotinylated]

Each binder was assayed against T1, GST-41.8 kD protein (KIAA0751) PDZ … (assay: A/G plate assays, Table 2 matrix).

binding result	Binder
binds	Biotin-KDSRPSFVGSSSGHTSTTL (also called CDW128E (IL8RB)) [CDW128B (IL8RB) C-terminal peptide AA29.2L, biotinylated]
binds	Biotin-SPQPDSTDNDDYDDISAA [CD6 C-terminal peptide AA6L, biotinylated]
binds	Biotin-TSGTGHNQTRALRASESGI (also called CD97 (CD55L)) [CD97 C-terminal peptide AA14L, biotinylated]
binds	Biotin-HKAEIHAQPSDKERLTSDA (also called CD49F (Aform, alpha6)) [CD49F C-terminal peptide AA12L, biotinylated]

What follows are binders tested against T5, GST-PSD95 fusion protein (PDZ domains 1-3) (human, UniProt P31016 56-395 (rat entry)) (assay: A/G plate assays, Table 2 matrix).
T5 construct: also called human post-synaptic density protein 95; not shown: glutathione S-transferase encoded by vector pGEX-3X (Pharmacia)
T5 sequence (P31016 other isoform, or with tags, fused parts or gaps): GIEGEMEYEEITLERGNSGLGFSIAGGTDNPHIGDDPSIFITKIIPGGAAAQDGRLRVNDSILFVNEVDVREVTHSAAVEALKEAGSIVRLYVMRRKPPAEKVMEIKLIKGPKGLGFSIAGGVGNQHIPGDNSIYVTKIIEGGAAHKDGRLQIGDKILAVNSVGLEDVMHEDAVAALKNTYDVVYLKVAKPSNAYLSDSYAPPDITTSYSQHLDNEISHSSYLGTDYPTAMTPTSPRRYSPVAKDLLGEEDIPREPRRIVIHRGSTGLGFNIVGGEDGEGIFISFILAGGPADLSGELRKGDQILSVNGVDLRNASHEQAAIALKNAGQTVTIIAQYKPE

binding result	Binder
binds	Biotin-KDSRPSFVGSSSGHTSTTL (also called CDW128E (IL8RB)) [CDW128B (IL8RB) C-terminal peptide AA29.2L, biotinylated]

What follows are binders tested against T2, KIAA0807 (PDZ domain)-GST fusion protein (assay: A/G plate assays, Table 2 matrix).

binding result	Binder
binds	Biotin-KDSRPSFVGSSSGHTSTTL (also called CDW128E (IL8RB)) [CDW128B (IL8RB) C-terminal peptide AA29.2L, biotinylated]
binds	B4
binds	Biotin-KKGTYLTDETHREVKFTSL [CD46 (Form 1) C-terminal peptide AA10L, biotinylated]
binds	Biotin-AWDDSARAAGGQGLHVTAL [LPAP C-terminal peptide AA30L, biotinylated]

Each binder was assayed against T5, GST-PSD95 fusion protein (PDZ domains …) (assay: G assay: biotinylated peptide on plate-bound GST-PDZ fusion, OD 450 nm).

binding result	Binder
no binding	B1
no binding	Biotin-YSATYSELEDPGEMSPPIDL (also called FceRlb; FcεRβI) [FceRIb C-terminal peptide AA25L, biotinylated]
no binding	Biotin-PSWRRSSLSESENATSLTTF (also called CXCR5) [BLR-1 C-terminal peptide AA45L, biotinylated]
no binding	B2
no binding	B3
no binding	Biotin-ARHRVTSYTSSSVNVSSNL [CDW128A (IL8RA) C-terminal peptide AA29.1L, biotinylated]
no binding	Biotin-TSGTGHNQTRALRASESGI (also called CD97 (CD55L)) [CD97 C-terminal peptide AA14L, biotinylated]
no binding	Biotin-DLGNMEENKKLEENNHKTEA (also called CD166 (CD6L)) [CD166 C-terminal peptide AA20L, biotinylated]

The binders below were run against T5, GST-PSD95 fusion protein (PDZ domains …) (assay: G assay: biotinylated peptide on plate-bound GST-PDZ fusion, streptavidin-HRP, OD 450 nm).

binding result	Binder
binds	Biotin-VTSPNKHLGLVTPHKTELV [CD83 C-terminal peptide AA47L, biotinylated]
binds	Biotin-KKGTYLTDETHREVKFTSL [CD46 (Form 1) C-terminal peptide AA10L, biotinylated]

Each binder was assayed against T1, GST-41.8 kD protein (KIAA0751) PDZ … (assay: A/G assays).

binding result	Binder
no binding	B5
no binding	B6
no binding	Biotin-ENLAPVTTFGKTNGYIA (also called CD148 (DEP-1)) [CD148 C-terminal peptide AA19L, biotinylated]
no binding	B4
no binding	B7
no binding	B8
no binding	Biotin-QATSENGHSARQHVVADTEL [CD34 C-terminal peptide AA7L, biotinylated]
no binding	B9
no binding	Biotin-QFMTADETRNLQNVDMKIGV (also called CD44 (long form)) [CD44 C-terminal peptide AA9L, biotinylated]
no binding	Biotin-KKGTYLTDETHREVKFTSL [CD46 (Form 1) C-terminal peptide AA10L, biotinylated]
no binding	B10
no binding	Biotin-SSKSKSSEESQTFFGLYKL (not fully specified, also called FasLigand; Fas ligand) [FasL C-terminal peptide AA23L-M, biotinylated]
no binding	Biotin-DLGNMEENKKLEENNHKTEA (also called CD166 (CD6L)) [CD166 C-terminal peptide AA20L, biotinylated]
no binding	Biotin-ISKATPALPTVSISSSAEV (also called AA1L-R) [Clasp-1 C-terminal peptide AA1L, biotinylated]
no binding	Biotin-AWDDSARAAGGQGLHVTAL [LPAP C-terminal peptide AA30L, biotinylated]
no binding	B11

What follows are binders tested against T5, GST-PSD95 fusion protein (PDZ domains …) (assay: A/G assays).

binding result	Binder
no binding	B5
no binding	B6
no binding	Biotin-ENLAPVTTFGKTNGYIA (also called CD148 (DEP-1)) [CD148 C-terminal peptide AA19L, biotinylated]
no binding	B4
no binding	B7
no binding	B8
no binding	Biotin-SPQPDSTDNDDYDDISAA [CD6 C-terminal peptide AA6L, biotinylated]
no binding	Biotin-HKAEIHAQPSDKERLTSDA (also called CD49F (Aform, alpha6)) [CD49F C-terminal peptide AA12L, biotinylated]
no binding	B9
no binding	Biotin-QFMTADETRNLQNVDMKIGV (also called CD44 (long form)) [CD44 C-terminal peptide AA9L, biotinylated]
no binding	B10
no binding	Biotin-SSKSKSSEESQTFFGLYKL (not fully specified, also called FasLigand; Fas ligand) [FasL C-terminal peptide AA23L-M, biotinylated]
no binding	Biotin-AWDDSARAAGGQGLHVTAL [LPAP C-terminal peptide AA30L, biotinylated]
no binding	B11

These binders were tested against T3, GEF PDZ-GST fusion protein (assay: A/G assays).

binding result	Binder
no binding	B1
no binding	B5
no binding	B6
no binding	Biotin-YSATYSELEDPGEMSPPIDL (also called FceRlb; FcεRβI) [FceRIb C-terminal peptide AA25L, biotinylated]
no binding	Biotin-PSWRRSSLSESENATSLTTF (also called CXCR5) [BLR-1 C-terminal peptide AA45L, biotinylated]
no binding	Biotin-ENLAPVTTFGKTNGYIA (also called CD148 (DEP-1)) [CD148 C-terminal peptide AA19L, biotinylated]
no binding	Biotin-KDSRPSFVGSSSGHTSTTL (also called CDW128E (IL8RB)) [CDW128B (IL8RB) C-terminal peptide AA29.2L, biotinylated]
no binding	B4
no binding	B2
no binding	B8
no binding	Biotin-SPQPDSTDNDDYDDISAA [CD6 C-terminal peptide AA6L, biotinylated]
no binding	B3
no binding	Biotin-ARHRVTSYTSSSVNVSSNL [CDW128A (IL8RA) C-terminal peptide AA29.1L, biotinylated]
no binding	Biotin-QATSENGHSARQHVVADTEL [CD34 C-terminal peptide AA7L, biotinylated]
no binding	Biotin-TSGTGHNQTRALRASESGI (also called CD97 (CD55L)) [CD97 C-terminal peptide AA14L, biotinylated]
no binding	Biotin-VTSPNKHLGLVTPHKTELV [CD83 C-terminal peptide AA47L, biotinylated]
no binding	Biotin-HKAEIHAQPSDKERLTSDA (also called CD49F (Aform, alpha6)) [CD49F C-terminal peptide AA12L, biotinylated]
no binding	B9
no binding	Biotin-QFMTADETRNLQNVDMKIGV (also called CD44 (long form)) [CD44 C-terminal peptide AA9L, biotinylated]
no binding	Biotin-KKGTYLTDETHREVKFTSL [CD46 (Form 1) C-terminal peptide AA10L, biotinylated]
no binding	Biotin-SSKSKSSEESQTFFGLYKL (not fully specified, also called FasLigand; Fas ligand) [FasL C-terminal peptide AA23L-M, biotinylated]
no binding	Biotin-CAISGTSSDRGYGSPRYAEV (also called AA3L-V) [Clasp-4 C-terminal peptide AA3L, biotinylated]
no binding	Biotin-DLGNMEENKKLEENNHKTEA (also called CD166 (CD6L)) [CD166 C-terminal peptide AA20L, biotinylated]
no binding	Biotin-ISKATPALPTVSISSSAEV (also called AA1L-R) [Clasp-1 C-terminal peptide AA1L, biotinylated]
no binding	Biotin-AWDDSARAAGGQGLHVTAL [LPAP C-terminal peptide AA30L, biotinylated]
no binding	B11

These binders were tested against T4, GST-LIM protein PDZ domain fusion … (assay: A/G assays).

binding result	Binder
no binding	B1
no binding	B5
no binding	B6
no binding	Biotin-YSATYSELEDPGEMSPPIDL (also called FceRlb; FcεRβI) [FceRIb C-terminal peptide AA25L, biotinylated]
no binding	Biotin-PSWRRSSLSESENATSLTTF (also called CXCR5) [BLR-1 C-terminal peptide AA45L, biotinylated]
no binding	Biotin-ENLAPVTTFGKTNGYIA (also called CD148 (DEP-1)) [CD148 C-terminal peptide AA19L, biotinylated]
no binding	Biotin-KDSRPSFVGSSSGHTSTTL (also called CDW128E (IL8RB)) [CDW128B (IL8RB) C-terminal peptide AA29.2L, biotinylated]
no binding	B4
no binding	B7
no binding	B2
no binding	B8
no binding	Biotin-SPQPDSTDNDDYDDISAA [CD6 C-terminal peptide AA6L, biotinylated]
no binding	B3
no binding	Biotin-ARHRVTSYTSSSVNVSSNL [CDW128A (IL8RA) C-terminal peptide AA29.1L, biotinylated]
no binding	Biotin-QATSENGHSARQHVVADTEL [CD34 C-terminal peptide AA7L, biotinylated]
no binding	Biotin-TSGTGHNQTRALRASESGI (also called CD97 (CD55L)) [CD97 C-terminal peptide AA14L, biotinylated]
no binding	Biotin-VTSPNKHLGLVTPHKTELV [CD83 C-terminal peptide AA47L, biotinylated]
no binding	Biotin-HKAEIHAQPSDKERLTSDA (also called CD49F (Aform, alpha6)) [CD49F C-terminal peptide AA12L, biotinylated]
no binding	B9
no binding	Biotin-QFMTADETRNLQNVDMKIGV (also called CD44 (long form)) [CD44 C-terminal peptide AA9L, biotinylated]
no binding	Biotin-KKGTYLTDETHREVKFTSL [CD46 (Form 1) C-terminal peptide AA10L, biotinylated]
no binding	B10
no binding	Biotin-SSKSKSSEESQTFFGLYKL (not fully specified, also called FasLigand; Fas ligand) [FasL C-terminal peptide AA23L-M, biotinylated]
no binding	Biotin-CAISGTSSDRGYGSPRYAEV (also called AA3L-V) [Clasp-4 C-terminal peptide AA3L, biotinylated]
no binding	Biotin-DLGNMEENKKLEENNHKTEA (also called CD166 (CD6L)) [CD166 C-terminal peptide AA20L, biotinylated]
no binding	Biotin-ISKATPALPTVSISSSAEV (also called AA1L-R) [Clasp-1 C-terminal peptide AA1L, biotinylated]
no binding	Biotin-AWDDSARAAGGQGLHVTAL [LPAP C-terminal peptide AA30L, biotinylated]
no binding	B11
